In IntAct's records for PubMed 18292755:

B1: Autoimmune regulator (Homo sapiens), O43918 (parent)
chain: MATDAALRRLLRLHRTEIAVAVDSAFPLLHALADHDVVPEDKFQETLHLKEKEGCPQAFHALLSWLLTQDSTAILDFWRVLFKDYNLERYGRLQPILDSFPKDVDLSQPRKGRKPPAVPKALVPPPRLPTKRKASEEARAAAPAALTPRGTASPGSQLKAKPPKKPESSAEQQRLPLGNGIQTMSASVQRAVAMSSGDVPGARGAVEGILIQQVFESGGSKKCIQVGGEFYTPSKFEDSGSGKNKARSSSGPKPLVRAKGAQGAAPGGGEARLGQQGSVPAPLALPSDPQLHQKNEDECAVCRDGGELICCDGCPRAFHLACLSPPLREIPSGTWRCSSCLQATVQEVQPRAEEPRPQEPPVETPLPPGLRSAGEEVRGPPGEPLAGMDTTLVYKHLPAPPSAAPLPGLDSSALHPLLCVGPEGQQNLAPGARCGVCGDGTDVLRCTHCAAAFHWRCHFPAGTSRPGTGLRCRSCSGDVTPAPVEGVLAPSPARLAPGPAKDDTASHEPALHRDDLESLLSEHTFDGILQWAIQSMARPAAPFPS

Variants of: B1
Conditions: with h31_human H3C1, P68431

Variant	effect of a mutation on the interaction
D297A	disrupting interaction

Variants of: B1
Conditions: with h31_human H3C1, P68431
Remark: another data set of the same source

Variant	effect of a mutation on the interaction
D297A	decreasing interaction

Variants of: B1
Conditions: with h31_human H3C1, P68431
Remark: another data set of the same source

Variant	effect of a mutation on the interaction
C311Y	disrupting interaction

Variants of: B1
Conditions: with h31_human H3C1, P68431
Remark: another data set of the same source

Variant	effect of a mutation on the interaction
V301M	decreasing interaction

Variants of: B1
Conditions: with h31_human H3C1, P68431
Remark: another data set of the same source

Variant	effect of a mutation on the interaction
D312A	disrupting interaction
